Where only a bound is given, the exact number is not on record here.

Test [1] concerns Staphylococcus aureus ATCC 25923. Briefly: Determination of MIC and MBC, Staphylococcus aureus. Format: cell-based. How it is done:
(§1) A series of test tubes was prepared containing the culture broth inoculated with the test micro-organism and the substance to be tested was introduced at decreasing scalar concentrations. […] The test tubes in which the microbial population developed were then determined by observing visually the turbidity that is indicative of growth. Test tubes in which the substance is present at a sufficient concentration to inhibit growth remain clear. When the nature itself of the sample prevents visual reading or if it is wished to determine whether the lack of development is due to a microbiostatic or microbicidal action, transfers are made to appropriate agar media for confirmation. The concentration of sample at which growth of the micro-organisms is inhibited is considered to be the Minimum Inhibitory Concentration (MIC), while that at which viable micro-organisms are no longer present is considered to be the Minimum Bactericidal Concentration (MBC) The antibacterial activity of these substances against Staphylococcus aureus acnes ATCC 25923 and Staphylococcus epidermidis ATCC 12228 was tested according to the above-described method.

Test [2] has as its system Staphylococcus epidermidis ATCC 12228. Description: Determination of MIC and MBC, Staphylococcus epidermidis. Format: cell-based. How it is done:
as §1

B1: Lactoferrin (protein, UniProt P02788 20-710, looked up)
Lactotransferrin: GRRRSVQWCAVSQPEATKCFQWQRNMRKVRGPPVSCIKRDSPIQCIQAIAENRADAVTLDGGFIYEAGLAPYKLRPVAAEVYGTERQPRTHYYAVAVVKKGGSFQLNELQGLKSCHTGLRRTAGWNVPIGTLRPFLNWTGPPEPIEAAVARFFSASCVPGADKGQFPNLCRLCAGTGENKCAFSSQEPYFSYSGAFKCLRDGAGDVAFIRESTVFEDLSDEAERDEYELLCPDNTRKPVDKFKDCHLARVPSHAVVARSVNGKEDAIWNLLRQAQEKFGKDKSPKFQLFGSPSGQKDLLFKDSAIGFSRVPPRIDSGLYLGSGYFTAIQNLRKSEEEVAARRARVVWCAVGEQELRKCNQWSGLSEGSVTCSSASTTEDCIALVLKGEADAMSLDGGYVYTAGKCGLVPVLAENYKSQQSSDPDPNCVDRPVEGYLAVAVVRRSDTSLTWNSVKGKKSCHTAVDRTAGWNIPMGLLFNQTGSCKFDEYFSQSCAPGSDPRSNLCALCIGDEQGENKCVPNSNERYYGYTGAFRCLAENAGDVAFVKDVTVLQNTDGNNNEAWAKDLKLADFALLCLDGKRKPVTEARSCHLAMAPNHAVVSRMDKVERLKQVLLHQQAKFGRNGSDCPDKFCLFQSETKNLLFNDNTECLARLHGKTTYEKYLGPQYVAGITNLKKCSTSPLLEACEFLRK
On to B1, for which the MIC in test [1] and in test [2] was >20 mg/mL each time.
